Results taken from PMC5959852.

Tests used:
[1] = target: TAZ1 (transcriptional adaptor zinc-binding 1) domain of CREB binding protein (CBP) (human) (UniProt Q92793); assay: stopped-flow fluorimetry (association kinetics); TAZ1 constant at 0.5-0.9 µM, Hif-1α CAD variant varied 1-15 µM; Trp-418 fluorescence of TAZ1; 293 K; 20 mM HEPES pH 6.9, 1 mM TCEP, 190 mM NaCl; apparent kon from the fast phase; Kd = koff^app/kon^app with koff^app from the displacement experiments
[2] = target: TAZ1 (transcriptional adaptor zinc-binding 1) domain of CREB binding protein (CBP) (human) (UniProt Q92793); assay: stopped-flow fluorimetry (displacement); complex TAZ1/Hif-1α CAD variant (0.75 µM/0.5 µM) mixed with excess TAZ1 W418Y (10-50 µM); kobs at excess equals apparent koff; 293 K; 20 mM HEPES pH 6.9, 1 mM TCEP, 190 mM NaCl
[3] = target: TAZ1 (transcriptional adaptor zinc-binding 1) domain of CREB binding protein (CBP) (human) (UniProt Q92793); assay: ITC; 15 µM TAZ1 in the cell, 149 µM Hif-1α CAD (L813A) in the syringe; 293 K; 20 mM HEPES pH 6.9, 1 mM TCEP, 190 mM NaCl; one-to-one model

Sequence of C-terminal activation domain of hypoxia inducible factor 1α (Hif-1α CAD), wild type (Q16665 776-826): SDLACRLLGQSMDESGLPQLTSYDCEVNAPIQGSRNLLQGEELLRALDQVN
Sequence of Hif-1α CAD hydroxylated at Asn-803 (Q16665 776-826): as above

| Substance | Kd [1] [nM] | kon [1] [M⁻¹ s⁻¹] | koff [2] [s⁻¹] | Kd [3] [nM] |
| --- | --- | --- | --- | --- |
| Hif-1α CAD hydroxylated at Asn-803 (from UniProt Q16665 776-826) (domain or fragment) | 172 | 7.7e+06 | 1.32 | – |
| Hif-1α CAD T796S (from UniProt Q16665 776-826) (domain or fragment) | 3.23 | 8.27e+06 | 0.0267 | – |
| Hif-1α CAD M787A (from UniProt Q16665 776-826) (domain or fragment) | 4.83 | 6.7e+06 | 0.0324 | – |
| Hif-1α CAD L813A (from UniProt Q16665 776-826) (domain or fragment) | 137 | 8.52e+06 | 1.17 | 144 |
| Hif-1α CAD L782A (from UniProt Q16665 776-826) (domain or fragment) | 4.56 | 7.36e+06 | 0.0336 | – |
| Hif-1α CAD L819A (from UniProt Q16665 776-826) (domain or fragment) | 23.1 | 6.1e+06 | 0.141 | – |
| Hif-1α CAD L795A (from UniProt Q16665 776-826) (domain or fragment) | 1100 | 6.12e+06 | 6.74 | – |
| Hif-1α CAD V825A (from UniProt Q16665 776-826) (domain or fragment) | 2.12 | 1.04e+07 | 0.022 | – |
| Hif-1α CAD L783A (from UniProt Q16665 776-826) (domain or fragment) | 3.6 | 9.62e+06 | 0.0346 | – |
| Hif-1α CAD L778A (from UniProt Q16665 776-826) (domain or fragment) | 3.65 | 8.06e+06 | 0.0294 | – |
| Hif-1α CAD L812A (from UniProt Q16665 776-826) (domain or fragment) | 71.5 | 7.12e+06 | 0.509 | – |
| Hif-1α CAD I806V (from UniProt Q16665 776-826) (domain or fragment) | 5.93 | 9.73e+06 | 0.0577 | – |
| Hif-1α CAD L792A (from UniProt Q16665 776-826) (domain or fragment) | 160 | 5.75e+06 | 0.92 | – |
| Hif-1α CAD C800A (from UniProt Q16665 776-826) (domain or fragment) | 17.7 | 6.55e+06 | 0.116 | – |
| Hif-1α CAD C780A (from UniProt Q16665 776-826) (domain or fragment) | 3.78 | 9.56e+06 | 0.0361 | – |
| Hif-1α CAD V802A (from UniProt Q16665 776-826) (domain or fragment) | 13.7 | 7.28e+06 | 0.0995 | – |
| Hif-1α CAD L818A (from UniProt Q16665 776-826) (domain or fragment) | 205 | 6.23e+06 | 1.27 | – |
| C-terminal activation domain of hypoxia inducible factor 1α (Hif-1α CAD), wild type (from UniProt Q16665 776-826) (domain or fragment) | 3.36 | 8.83e+06 | 0.0297 | – |
